Common to all, as to assay: cell-based or functional assay
Assay [1] addresses HIV-1 APV-13 envelope protein (Env) on pseudovirus (HIV-1).
Assay [2] concerns the target HIV-1 Env of isolate MGRM-G-011 (clade G pseudovirus) (HIV-1).
Assay [3] addresses HIV-1 Env of isolate MGRM-G-013 (clade G pseudovirus) (HIV-1).
For assay [4], the target named is HIV-1 MGRM-A-009 envelope glycoprotein (Env) (HIV-1).
The target of assay [5] is HIV-1 Env of isolate MGRM-D-003 (clade D) (HIV-1).
The target of assay [6] is HIV-1 Env of pseudovirus 93TH305, clade B (HIV-1).
Assay [7] concerns the target HIV-1 MGRM-C-022 Env (HIV-1).
The target in assay [8] is HIV-1 MGRM-A-007 envelope glycoprotein (Env) (HIV-1).
In assay [9] the target is HIV-1 Env of pseudovirus THR0.18 (Acute), clade B (HIV-1).
Assay [10] addresses HIV-1 Env of isolate MGRM-AE-002 (HIV-1).
Assay [11] has as its target HIV-1 Env of pseudovirus CAAN.A2 (Acute), clade B (HIV-1).
For assay [12], the target named is HIV-1 92UG005 envelope protein (Env) on pseudovirus (HIV-1).
Assay [13] concerns the target HIV-1 IAVI-C3 envelope protein (Env) on pseudovirus (HIV-1).
In assay [14] the target is HIV-1 Env of pseudovirus MGRM-Chronic-B-003, clade B (HIV-1).
Assay [15] has as its target HIV-1 Env of isolate MGRM-AG-013 (CRF_AG), on pseudovirus (HIV-1).
Assay [16] deals with HIV-1 Env of isolate 93UG077 (HIV-1).
The target in assay [17] is HIV-1 Env of isolate MGRM-C-007 (HIV-1).
For assay [18], the target named is HIV-1 Env of isolate MGRM-F1-021 (subtype F), on pseudovirus (HIV-1).
For assay [19], the target named is HIV-1 JR-CSF Env D477A (HIV-1 (isolate JR-CSF)) (UniProt P20871).
The target in assay [20] is HIV-1 Env of isolate 92BR020 (pseudovirus) (HIV-1 isolate 92BR020, subtype B).
In assay [21] the target is HIV-1 JR-CSF Env D474A (HIV-1 (isolate JR-CSF)) (UniProt P20871).
For assay [22], the target named is HIV-1 Env of isolate MGRM-D-029 (subtype D), on pseudovirus (HIV-1).
For assay [23], the target named is HIV-1 JR-CSF Env L179A (HIV-1 (isolate JR-CSF)) (UniProt P20871).
The target of assay [24] is HIV-1 JR-CSF Env Y177A (HIV-1 (isolate JR-CSF)) (UniProt P20871).
Assay [25] addresses HIV-1 Env of isolate CMU02 (CRF01_AE), on pseudovirus (HIV-1).
The target of assay [26] is HIV-1 Env of isolate MGRM-F1-015 (subtype F), on pseudovirus (HIV-1).
Assay [27] deals with HIV-1 Env of isolate 93IN905 (HIV-1).
In assay [28] the target is HIV-1 Env of isolate APV-17 (pseudovirus) (HIV-1 isolate APV-17, subtype B).
Assay [29] has as its target HIV-1 Env of isolate MG RM-D-011 (subtype D) (HIV-1).
Assay [30] deals with HIV-1 Env of isolate MG RM-D-008 (subtype D) (HIV-1).
Assay [31] has as its target HIV-1 Env of isolate MGRM-C-015 (pseudovirus) (HIV-1 isolate MGRM-C-015, subtype C).
Assay [32] has as its target HIV-1 CMU02 envelope glycoprotein (Env) on pseudovirus (HIV-1).
In assay [33] the target is HIV-1 Env of isolate MG RM-D-018 (subtype D) (HIV-1).
Assay [34] deals with HIV-1 JRCSF Env (pseudovirus) (HIV-1) (UniProt P20871).
The target of assay [35] is HIV-1 94UG103 envelope glycoprotein (Env) on pseudovirus (HIV-1).
Assay [36] deals with HIV-1 Env of isolate MGRM-F1-008 (subtype F) (HIV-1).
Assay [37] has as its target HIV-1 Env of isolate MG RM-D-028 (subtype D) (HIV-1).
Assay [38] concerns the target HIV-1 Env of isolate MGRM-F1-013 (HIV-1).
Assay [39] has as its target HIV-1 MGRM-Chronic-B-001 Env (pseudovirus) (HIV-1).
In assay [40] the target is HIV-1 93UG077 envelope glycoprotein (Env) on pseudovirus (HIV-1).
Assay [41] concerns the target HIV-1 Env of isolate MGRM-F1-006 (subtype F) (HIV-1).
Assay [42] deals with HIV-1 Env of isolate MGRM-C-012 (pseudovirus) (HIV-1 isolate MGRM-C-012, subtype C).
The target in assay [43] is HIV-1 Env of isolate MGRM-C-007 (pseudovirus) (HIV-1 isolate MGRM-C-007, subtype C).

5329_C19 (PGT-136) (antibody), sequence (VH): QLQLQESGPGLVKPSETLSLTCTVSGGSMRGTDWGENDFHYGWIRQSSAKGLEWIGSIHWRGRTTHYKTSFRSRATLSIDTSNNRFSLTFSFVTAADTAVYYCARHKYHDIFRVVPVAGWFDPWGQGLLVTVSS
5329_C19 (PGT-136) (antibody), sequence (VL): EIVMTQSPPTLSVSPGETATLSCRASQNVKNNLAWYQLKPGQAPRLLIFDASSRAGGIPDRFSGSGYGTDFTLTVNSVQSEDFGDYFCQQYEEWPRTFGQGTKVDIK
5345_I01 (PGT-137) (antibody), sequence (VH): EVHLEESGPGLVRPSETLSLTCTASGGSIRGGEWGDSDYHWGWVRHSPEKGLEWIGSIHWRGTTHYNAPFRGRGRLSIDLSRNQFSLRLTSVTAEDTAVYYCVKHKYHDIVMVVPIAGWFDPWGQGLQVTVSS
5345_I01 (PGT-137) (antibody), sequence (VL): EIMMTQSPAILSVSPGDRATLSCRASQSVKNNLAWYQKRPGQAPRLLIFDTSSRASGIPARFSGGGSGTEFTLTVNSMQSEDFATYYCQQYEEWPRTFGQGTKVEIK

Regarding 1495_C14 (PGC14) (antibody), the neutralization IC50 in [1], in assay [12] and in assay [13] was more than 50 µg/mL in each case. Besides, the IC50 (µg/ml), pseudovirus neutralization in [2] was more than 50 µg/mL; in [3] it was more than 50 µg/mL; in [4], more than 50 µg/mL; in assay [5] it was more than 50 µg/mL; in assay [6] it was 6 µg/mL; in assay [8], more than 50 µg/mL. Also, the IC50 (µg/ml), pseudovirus neutralization in assay [9], in assay [10], in [11] and in [14] was more than 50 µg/mL each time. Besides, the IC50 – broadly, the concentration at which inhibition is half-maximal – in assay [7] is more than 50 µg/mL.

Turning to 5114_A19 (PGT-128) (antibody), the IC50, single-round pseudovirus neutralization is 0.004 µg/mL in assay [15] and more than 50 µg/mL in assay [25]. This substance came in with a neutralization IC50 in assay [16] of 0.014 µg/mL. Also, the IC50 stood at 0.111 µg/mL in assay [17] and 0.009 µg/mL in [27]. For the same substance, the IC50, pseudovirus neutralization in assay [18], in [22] and in [26] was more than 50 µg/mL in each case. Also, the Fold IC50 increase relative to wild-type was found to be 0.7 fold in assay [19], 0.8 fold in assay [21], 2.8 fold in assay [23] and 1.4 fold in assay [24]. Besides, the IC50 (µg/mL) neutralization in assay [20] was 0.009 µg/mL; in assay [28] it was 0.016 µg/mL.

On to 5136_H01 (PGT-131) (antibody), for which the IC50, single-round pseudovirus neutralization in assay [15] is 0.03 µg/mL; in assay [25], more than 50 µg/mL. The substance further displayed a neutralization IC50 in [16] of more than 50 µg/mL. Also, the IC50 is more than 50 µg/mL in assay [17] and 0.177 µg/mL in [27]. Also, the IC50, pseudovirus neutralization in assay [18], in assay [22] and in assay [26] was more than 50 µg/mL in each case. The Fold IC50 increase relative to wild-type in [19] is 1 fold; in [21], 1.6 fold; in [23], 4.8 fold; in [24], 5.3 fold. Besides, the values for the IC50 (µg/mL) neutralization in assay [20] and in [28] were 6.16 µg/mL and more than 50 µg/mL, respectively.

As for 5141_B17 (PGT-126) (antibody), the IC50 (µg/mL), pseudovirus neutralization in assay [29] is 0.009 µg/mL; in assay [30], 43.1 µg/mL; in assay [33], 0.009 µg/mL; in [36] it was more than 50 µg/mL; in assay [37], more than 50 µg/mL; in assay [41] it was 0.078 µg/mL. Further, the IC50 (µg/mL) neutralization was 3.14 µg/mL in [31], 0.111 µg/mL in assay [42] and 25.3 µg/mL in [43]. In addition, the IC50 (ug/ml), neutralizing activity in [32] is more than 10 µg/mL; in assay [35], 0.0091 µg/mL; in [40] it was 0.0256 µg/mL. Besides, the IC50 in [34] was 0.0061 µg/mL; in [38], more than 50 µg/mL. Moreover, the IC50, pseudovirus neutralization was 0.008 µg/mL in [34] and more than 50 µg/mL in assay [39]. The IC80 (as a rule, the concentration needed for an effect of 80%) in [34] was 0.018 µg/mL. Further, in [34], the IC90 (in general, the concentration at which the effect reaches the 90% level) turned out to be 0.0339 µg/mL. Moreover, the IC95 (commonly the point of the concentration-response curve where the effect stands at 95%) in assay [34] was determined as 0.0608 µg/mL. Besides, the Fold IC50 increase relative to wild-type in assay [19] turned out to be 1.1 fold; in assay [21] it was 3.3 fold; in assay [23], 2.6 fold; in [24] it was 0.9 fold.

For 5147_N06 (PGT-130) (antibody), the IC50, single-round pseudovirus neutralization in assay [15] is 0.01 µg/mL; in [25], more than 50 µg/mL. This substance also yielded a neutralization IC50 in assay [16] of 21.4 µg/mL. The half-maximal inhibitory concentration (IC50) in [17] was more than 50 µg/mL; in assay [27], 0.02 µg/mL. Moreover, the IC50 (ug/ml), neutralizing activity in assay [32] is more than 10 µg/mL; in assay [35] it was 0.635 µg/mL; in assay [40], more than 10 µg/mL. The IC50, pseudovirus neutralization in [18], in assay [22] and in [26] was more than 50 µg/mL each time. The Fold IC50 increase relative to wild-type in [19] is 1.1 fold; in [21], 2 fold; in [23], 2.4 fold; in [24] it was 3.6 fold. The IC50 (µg/mL) neutralization was determined as 1.4 µg/mL in assay [20] and 10.7 µg/mL in assay [28].

Take 5329_C19 (PGT-136) (antibody): the IC50, single-round pseudovirus neutralization in assay [15] and in assay [25] was more than 50 µg/mL each time. In assay [16], this substance yielded a neutralization IC50 of more than 50 µg/mL. For the same substance, the IC50 in [17] is more than 50 µg/mL; in assay [27] it was 0.011 µg/mL. Further, the IC50, pseudovirus neutralization in assay [18], in assay [22] and in assay [26] was more than 50 µg/mL each time. Also, the IC50 (µg/mL) neutralization in assay [20] is 8.61 µg/mL; in assay [28], more than 50 µg/mL.

5343_B08 (PGT-135) (antibody): the IC50, single-round pseudovirus neutralization in assay [15] and in [25] was more than 50 µg/mL throughout. Besides, the neutralization IC50 in assay [16] is more than 50 µg/mL. For the same substance, the IC50 was more than 50 µg/mL in assay [17] and 0.011 µg/mL in assay [27]. Further, the IC50, pseudovirus neutralization in assay [18] amounted to 0.065 µg/mL; in assay [22] it was 30.8 µg/mL; in [26] it was 1.11 µg/mL. Besides, the Fold IC50 increase relative to wild-type in assay [19] is 1.5 fold; in [21], 1.2 fold; in assay [23], 1.2 fold; in [24], 0.3 fold. Further, the IC50 (µg/mL) neutralization in assay [20] was 0.073 µg/mL; in assay [28], more than 50 µg/mL.

On to 5345_I01 (PGT-137) (antibody), for which the IC50, single-round pseudovirus neutralization in [15] and in assay [25] was more than 50 µg/mL throughout. The neutralization IC50 in assay [16] is more than 50 µg/mL. In addition, the IC50 is more than 50 µg/mL in [17] and 0.042 µg/mL in [27]. Also, the IC50, pseudovirus neutralization in assay [18], in assay [22] and in assay [26] was more than 50 µg/mL throughout. Moreover, the IC50 (µg/mL) neutralization in assay [20] was 7.81 µg/mL; in assay [28], more than 50 µg/mL.
